This note sets out measurements from PMC3102714, “OsSpo11-4, a Rice Homologue of the Archaeal TopVIA Protein, Mediates Double-Strand DNA Cleavage and Interacts with OsTopVIB” (PLoS ONE, 2011).

In this experiment the target is T1, GST-OsTopVIB fusion protein (Oryza sativa L. ssp. japonica, UniProt Q6H442 1-696).
T1 construct: OsTopVIB, Oryza sativa L. ssp. japonica; ORF amplified with primers P17 and P18, cloned BamHI/BglII into pESP-2; fusion about 103 kD; also called OsTopVIB-GST fusion; GST-TopVIB
T1 sequence (looked up): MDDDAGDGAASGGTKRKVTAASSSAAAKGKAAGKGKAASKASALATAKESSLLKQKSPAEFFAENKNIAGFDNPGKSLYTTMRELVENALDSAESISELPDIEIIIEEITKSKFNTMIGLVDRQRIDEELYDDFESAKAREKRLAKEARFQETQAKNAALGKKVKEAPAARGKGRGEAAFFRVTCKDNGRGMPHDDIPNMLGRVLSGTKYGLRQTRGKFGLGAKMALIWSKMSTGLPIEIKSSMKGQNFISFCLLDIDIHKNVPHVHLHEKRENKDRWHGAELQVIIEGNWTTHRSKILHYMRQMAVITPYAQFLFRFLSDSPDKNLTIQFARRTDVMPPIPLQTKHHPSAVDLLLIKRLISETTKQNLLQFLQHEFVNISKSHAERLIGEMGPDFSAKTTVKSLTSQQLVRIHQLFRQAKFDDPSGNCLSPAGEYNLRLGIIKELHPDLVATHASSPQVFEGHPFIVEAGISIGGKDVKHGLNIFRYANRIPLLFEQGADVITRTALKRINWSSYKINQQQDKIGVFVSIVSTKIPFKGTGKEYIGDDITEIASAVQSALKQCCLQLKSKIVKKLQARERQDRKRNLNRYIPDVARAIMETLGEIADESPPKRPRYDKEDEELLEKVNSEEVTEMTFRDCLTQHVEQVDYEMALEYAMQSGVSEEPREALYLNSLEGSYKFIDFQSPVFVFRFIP
Put plainly: pull-down; GST-OsTopVIB preabsorbed to Glutathione Sepharose resin; purified pET-OsSpo11-4 precleared with GST resin; 0.5% NP-40 lysis buffer (20 mM Tris-HCl pH 8.0, 200 mM NaCl, 1 mM EDTA), 4°C, 6 h; western blot with antibody against pET-OsSpo11-4. The settings on record: both partners purified. (Immunoblotting shows a protein as a band on a membrane.)

B1: pET-OsSpo11-4 fusion protein (natural protein, Oryza sativa L. ssp. japonica, UniProt Q2QM00 1-487, looked up)
chain: MDDSTDDDSYHPRKHYAYDRQVSSSRWRTSREYIRGPGPETHTTESAQDGQDPPAGVYSYGYFSGSGNDPQVQGHFVPEIQKYNPYVIFKGEQLPVPIWELPEEKVQDFHDRYFIAKDKSRVEARKTLNRLLEGNINTIERGHGYKFNIPKYTDNMEFNEEVKVSLAKAGKTISRSFCNANQREVASRTGYTIDLIERTLGAGLNISKRTVLYTNKDLFGDQSKSDQAINDICALTNIRRGSLGIIAAEKGIVVGNIFLELTNGKSISCSIGVQIPHRLDQIKDVCVEIGSRNIEYILVVEKHTMLNYLLEMDYHTNNNCIILTGCGMPTLQTRDFLRFLKQRTGLPVFGLCDPDPEGISILATYARGSCNSAYDNFNISVPSICWVGLSSSDMIKLNLSETNYSRLSREDKTMLKNLWQDDLSDVWKRRIEEMISFDKKASFEAIHSLGFDYFATNLLPDMINKVREGYVQVQEKKEPQDTEASED
notes: OsSpo11-4, Oryza sativa L. ssp. japonica, predicted protein of 487 amino acids; full-length ORF amplified with primers P5 and P6, cloned into EcoRI/XhoI of pET-32a(+); fusion about 72 kD; Forward primer P5 lacks the ATG GAT that primer P15 has, so the insert may lack the first two codons; also called pET-Spo11-4
Consider B1, for which the binding result is “binds”.
